{
  "source": "paper PMC9525694",
  "biological_target": "T1, Bak (human (endogenous in HeLa)), Q16611",
  "T1 chain": "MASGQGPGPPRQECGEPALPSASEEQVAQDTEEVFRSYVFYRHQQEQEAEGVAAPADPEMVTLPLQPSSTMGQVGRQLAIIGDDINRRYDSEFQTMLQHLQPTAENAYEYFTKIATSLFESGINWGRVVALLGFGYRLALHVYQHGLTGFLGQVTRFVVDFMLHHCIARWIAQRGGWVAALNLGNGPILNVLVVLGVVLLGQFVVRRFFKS",
  "test": "native gel or EMSA; BN-PAGE (6-16.5% gradient, 4 °C) of mitochondria from uninfected HeLa cells incubated with recombinant tBid for 30 min, lysed in 1% digitonin; Western blot for Bak",
  "conditions": "remark: other sources report otherwise",
  "data": [
    {"binder": "Bak, Q16611 1-211 (natural protein) MASGQGPGPPRQECGEPALPSASEEQVAQDTEEVFRSYVFYRHQQEQEAEGVAAPADPEMVTLPLQPSSTMGQVGRQLAIIGDDINRRYDSEFQTMLQHLQPTAENAYEYFTKIATSLFESGINWGRVVALLGFGYRLALHVYQHGLTGFLGQVTRFVVDFMLHHCIARWIAQRGGWVAALNLGNGPILNVLVVLGVVLLGQFVVRRFFKS", "values": [
      {"measurement": "stoichiometry N", "result": 2}
    ]}
  ]
}
